Measurements taken from US20150191542A1 (INNATE PHARMA S A, published 2015).
Residue numbers refer to the chain shown, from its start. Read-outs that look alike come from different tables or passages of the source.

What was measured:
[1] = biological target: T1, MICA*007 expressed on C1R transfectant cells (human, UniProt Q29983 24-297, Glycosylated on cells; the letters do not carry this.); assay: flow cytometry, MFI against antibody concentration on C1R-MICA*07 cells
T1 construct: also called C1R-MICA*007; C1R-MICA*07
T1 chain: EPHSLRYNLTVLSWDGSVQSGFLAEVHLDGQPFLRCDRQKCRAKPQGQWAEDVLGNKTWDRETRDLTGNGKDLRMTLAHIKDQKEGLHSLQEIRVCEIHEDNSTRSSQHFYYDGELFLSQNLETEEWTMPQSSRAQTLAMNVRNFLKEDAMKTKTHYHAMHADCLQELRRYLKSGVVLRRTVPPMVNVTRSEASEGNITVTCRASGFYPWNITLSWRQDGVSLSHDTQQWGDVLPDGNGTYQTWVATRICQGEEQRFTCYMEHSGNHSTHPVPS

[2] = biological target: T2, MICA*008 expressed on C1R transfectant cells (human, UniProt Q29983 24-297, Glycosylated on cells; the letters do not carry this.); assay: flow cytometry, MFI against antibody concentration on C1R-MICA*08 cells
T2 construct: also called C1R-MICA*008; C1R-MICA*08
T2 chain: T1 chain with C36Y, M129V, K173E, G206S, W210R, T213I, S215T, Q251R

[3] = biological target: T3, MICA*004 expressed on C1R transfectant cells (human, UniProt Q29983 24-297, Glycosylated on cells; the letters do not carry this.); assay: flow cytometry, MFI against antibody concentration on C1R-MICA*04 cells
T3 construct: also called C1R-MICA*004; C1R-MICA*04
T3 chain: T1 chain with C36Y, L122V, M129V, K173E, G175S, T181R, G206S, W210R, S215T

[4] = biological target: T4, MICA*001 expressed on transfected cells (human); assay: flow cytometry, MFI against antibody concentration on C1R-MICA*01 cells
T4 construct: the cells carry the complete allele; also called C1R-MICA*001; C1R-MICA*01
T4 chain: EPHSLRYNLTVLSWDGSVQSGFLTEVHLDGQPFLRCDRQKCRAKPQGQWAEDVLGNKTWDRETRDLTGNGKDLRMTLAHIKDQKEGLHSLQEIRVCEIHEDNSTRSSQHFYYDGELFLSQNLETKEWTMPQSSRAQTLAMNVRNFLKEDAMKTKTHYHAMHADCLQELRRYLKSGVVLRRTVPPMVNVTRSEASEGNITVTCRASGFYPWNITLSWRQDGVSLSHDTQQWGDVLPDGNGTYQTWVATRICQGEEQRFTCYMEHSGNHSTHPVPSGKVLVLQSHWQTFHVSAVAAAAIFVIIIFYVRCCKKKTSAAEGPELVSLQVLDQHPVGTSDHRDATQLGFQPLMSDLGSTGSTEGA
Description: (§1) The binding of antibodies obtained from the first and second immunization series (including 9C10, 20C6 and 16A8) were tested for binding to MICA-expressing CR1 transfectant cells C1R-MICA*001, C1R-MICA*004, C1R-MICA*007 and C1R-MICA*008 (Pr. A. Steinle, Eberhard-Karls University Tuebingen, Germany) described in Salih et al. (2003) Blood 102(4): […]. Binding was analyzed by flow cytometry.
(§2) Cells were harvested and stained in PBS 1×/BSA 0,2%/EDTA 2 mM buffer during 30 minutes at 4° C. using a dose-range of the anti-MICA mAbs. After two washes in staining buffer, cells were stained for 30 min at 4° C. with goat anti-mouse (H+L)-PE polyclonal antibodies (1/200). After two washes, stainings were acquired on a BD FACS Canto II and analyzed using the FlowJo software.

[5] = biological target: T1, MICA*007 expressed on C1R transfectant …; assay: flow cytometry, MFI against antibody concentration on C1R-MICA*07 cells
Description: as §1, §2

[6] = biological target: T2, MICA*008 expressed on C1R transfectant …; assay: flow cytometry, MFI against antibody concentration on C1R-MICA*08 cells
Description: as §1, §2

[7] = biological target: T4, MICA*001 expressed on transfected cells; assay: flow cytometry on C1R-MICA*001 cells, 3-parameter logistic fit
Description: as §1, §2
(§3) Antibodies 9C10, 20C6 and 16A8 bound to each of the C1R-MICA*001, C1R-MICA*004, C1R-MICA*007 and C1R-MICA*008 cells (see FIGS. 3A, 3B and 3C for antibodies 9C10, 20C6 and 16A8 respectively). […] EC50 values are shown in Table C in μg/ml (calculated using a 3-parameter logistic fit).

[8] = biological target: T3, MICA*004 expressed on C1R transfectant …; assay: flow cytometry on C1R-MICA*004 cells, 3-parameter logistic fit
Description: as §1, §2, §3

[9] = biological target: T3, MICA*004 expressed on C1R transfectant …; assay: flow cytometry, MFI against antibody concentration on C1R-MICA*04 cells
Description: as §1, §2

[10] = biological target: T5, recombinant human MICA extracellular domain recombinant-Fc protein (MICA*019 allele) (human, UniProt Q29983 24-297); assay: SPR Biacore T100 (FIG. 1)
T5 construct: Bought from R&D Systems; also called MICA*019-Fc; MICA-Fc; not shown: Fc part of the bought fusion protein (R&D Systems)
T5 chain: T1 chain with C36Y, M129V, K173E, G175S, G206S, W210R, T213I, S215T, Q251R
Description: The binding of 9C10, 20C6 and 16A8 to either recombinant human MICA extracellular domain recombinant protein monomers or dimers (MICA*019 allele-Fc protein or MICA*001-His protein) as well as other NKG2D ligands MICB and ULBP1-2 was analyzed by Surface Plasmon Resonance (SPR) using a Biacore T100 apparatus to obtain monovalent and bivalent affinity, respectively. Biotinylated anti-MICA antibodies were injected at a constant rate of 10 μl/min over the Sensor Chip CAP flow-cells comprising Biotin CAPture Reagent. MICA-Fc or MICA-His protein, MICB-Fc, ULBP1-Fc or ULBP2-Fc protein is then injected successively (range of concentrations between 0.01-100 nM), with regeneration between injections, and in increasing order over two flowcells simultaneously. Curves are fitted using Biacore T100 Evaluation software.
(a) General Biacore T100 methods. SPR measurements were performed on a Biacore T100 apparatus (Biacore GE Healthcare) at 25° C. In all Biacore experiments HBS-EP+ buffer (Biacore GE Healthcare) or 10 mM sodium acetate pH 7.4, 150 mM NaCl, 0.05% P20 served as running buffer and sensorgrams were analyzed with Biaevaluation 4.1 and Biacore T100 Evaluation software. Recombinant human and mouse TLR3 were purchased from R&D Systems.

[11] = biological target: T1, MICA*007 expressed on C1R transfectant …; assay: flow cytometry on C1R-MICA*007 cells, 3-parameter logistic fit
Description: as §1, §2, §3

[12] = biological target: T2, MICA*008 expressed on C1R transfectant …; assay: flow cytometry on C1R-MICA*008 cells, 3-parameter logistic fit
Description: as §1, §2, §3

B1: CHG1-M-MIA-15F9 (antibody, V domains shown)
VH: DVQLQESGPDLVKPSQSLSLTCTVTGYSITSGYSWHWIRQFPGNKLEWMGFIHYSGSTDYNPSLKSRISLTRDTSKNQFFLQLNSVSTEDTATYYCAKDYGHWYFDVWGAGTTVTVSS
VL: SIVMTQTPKFLLVSAGDRVTITCKASQSVSYDVAWYQQKPGQSPKLLIFYASNRYTGVPARFTGSGYGTDFTFTISTVQAEDLAVYFCQQDYSSLTFGAGTKLELK
binding result [1]: binds
EC50 (read off the curve) [2]: ~0.8 mg/L
EC50 (read off the curve) [3]: ~0.5 mg/L

B2: CHG1-M-MIA-12A10 (antibody, V domains shown)
VH: QVQLQQSGADLVRPGASVRLSCRASGYSFTNYWMNWVKQRPGQGLEWIGMIHPSDSETRLNQKFKDKATLTVDKSSNTAYMQLSSPTSEDSAIYYCARDDFFTMDYWGQGTSVTVSS
VL: DILLTQSPAILSVSPGERVSFSCRASQNIVTSIHWYQQSTNGSPRLLIKYASESISGIPSRFSGSGSGTDFTLTINSVESEDVADYYCQQSNIWPLTFGAGTKLELK
EC50 (read off the curve) [4]: ~1 mg/L

B3: CHG1-M-MIA-10F3 (antibody, V domains shown)
VH: QVQLQQSAAELARPGASVKMSCKASGYTFTSYTMHWVKQRPGQGLEWIGYINPSSGYTEYNQKFKDKTTLTVDKSSTTSYMQLSSLTSDNSAVYYCARGGDWDVDWFVYWGQGTLVTVSA
VL: QIVLTQSPAIMSASPGEKVTITCSASSSISYMHWFQQKPGTSPKLWIYSTSKLASGVPARFSGSGSGTSHSLTISRMEAEDAATYYCQHRSTYPFTFGSGTKLEIK
EC50 (read off the curve) [4]: ~0.5 mg/L

B4: CHG1-M-MIA-18E8 (antibody, V domains shown)
VH: DVQLQESGPDLVNPSQSLSLICTVTGYSITSDYSWHWIRQFPGNKLEWMGNIHYSGRINYNPSLRSRISITRDTSKNQFFLQLISVTTEDTATYYCATRRTFGNFEDYWGQGTTLTVSS
VL: QIVLSQSPATLSVSPGEKVTMTCRSSSSVNYMHWYQQKPGSSPKPWIYATSTLASGVPARFSGSGSGTSYSLTISRVEAEDAATYYCQQWSSNPLTFGAGTKLELK
EC50 (read off the curve) [4]: ~0.5 mg/L

B5: antibody 20C6 (antibody, V domains shown)
VH: QITLKESGPGILKPSQTLSLTCSFSGFSLSTSGMGVGWIRQPSGKGLEWLAHIWWDDDKYYNPSLKSQLTISKDTSRNQVFLRITSVDTADTATYYCARRTQGYFDYWGQGTTLTVSS
VL: DIVMTQSPATLSVTPGDRVSLSCRASQSISDYLHWYQQKSHESPRLLIKYASQSISGIPSRFSGSGSGSDFTLSINSVEPEDVGVYYCQNGHSFPWTFGGGTKLEIK
notes: Murine hybridoma antibody of IgG1 isotype as tested
EC50 (read off the curve) [5]: ~0.5 mg/L
EC50 (read off the curve) [6]: ~0.2 mg/L
EC50 [7]: 0.3 mg/L
EC50 (read off the curve) [4]: ~0.3 mg/L
EC50 [8]: 0.08 mg/L
EC50 (read off the curve) [9]: ~0.07 mg/L
binding result [10]: binds
EC50 [11]: 1.58 mg/L
EC50 [12]: 0.17 mg/L
